Experimental data from PMC8613289.

Experiments:
Assay in all cases: TurboID proximity biotinylation, streptavidin pull-down, MS-based proteomics
Settings in all cases: biotin for 1 h; n = 5; read off a plot
RanBP2 = RanBP2 (UniProt P49792)
Nup50 = Nup50 (UniProt Q9UKX7)
Nup214 = Nup214 (UniProt P35658)
RANGAP1 = target: RANGAP1
AHCTF1 = target: AHCTF1
NUPL2 = target: NUPL2
NDC1 = target: NDC1

Row | other: Student's T-test Difference WT NLS2 (RanBP2) | other: Student's T-test Difference WT NLS2 (Nup50) | other: Student's T-test Difference WT NLS2 (Nup214) | other: Student's T-test Difference WT NLS2 (RANGAP1) | other: Student's T-test Difference WT NLS2 (AHCTF1) | other: Student's T-test Difference WT NLS1 (NUPL2) | other: Student's T-test Difference WT NLS1 (RanBP2) | other: Student's T-test Difference WT NLS1 (Nup50) | other: Student's T-test Difference WT NLS1 (Nup214) | other: Student's T-test Difference WT NLS1 (RANGAP1) | other: Student's T-test Difference WT NLS1 (NDC1) | other: Student's T-test Difference WT NLS1 (AHCTF1) | Substance
1 | 2.1 | 3.1 | 2.9 | 2.6 | 1.3 |  |  |  |  |  |  |  | EphA2-V5-TurboID (wild-type EphA2) (from UniProt P29317) NLS2 (two K>A in the stretch …, as read from Fig. 3a; no residue numbers printed)
2 |  |  |  |  |  | -1.6 | 1.5 | 2.5 | 2 | 1.8 | -1 | 0.5 | EphA2-V5-TurboID (wild-type EphA2) (from UniProt P29317) NLS1 (RRR>AAA in the juxtamembrane stretch …, as read from Fig. 3a; no residue numbers printed)
